Test results taken from patent US20160052997A1.
Several values for one entry are separate records, joined by “and”; a condition that tells them apart may be missing. Equal entries are not always repeated. Where two headings read alike, the source gives them in different places.

How the values were obtained:
[1] = biological target: purified recombinant HA protein of H5N1 (A/Vietnam/1203/04) (Influenza A virus A/Vietnam/1203/04 (H5N1))
[2] = biological target: purified recombinant HA protein of H1N1 (A/Ohio/07/09) (Influenza A virus A/Ohio/07/09 (H1N1))
[3] = biological target: purified recombinant HA protein of H7N9 (A/Shanghai/1/2013) (Influenza A virus A/Shanghai/1/2013 (H7N9))
[4] = biological target: purified recombinant HA protein of H7N9 (A/Anhui/1/2013) (Influenza A virus A/Anhui/1/2013 (H7N9))
[5] = biological target: purified recombinant HA protein of H7N7 (A/England/268/96) (Influenza A virus A/England/268/96 (H7N7))
[6] = biological target: purified recombinant HA protein of H3N2 (A/Brisbane/10/07) (Influenza A virus A/Brisbane/10/07 (H3N2))
[7] = biological target: purified recombinant HA protein of H3N2 (A/Brisbane/10/07) (Influenza A virus A/Brisbane/10/07 (H3N2)); test: SPR, Biacore T200, HA captured via anti-6x his tag antibody, 25 C
[8] = biological target: purified recombinant HA protein of H3N2 (A/Wisconsin/67/05) (Influenza A virus A/Wisconsin/67/05 (H3N2)); test: as above
[9] = biological target: purified recombinant HA protein of H7N9 (A/Anhui/1/2013) (Influenza A virus A/Anhui/1/2013 (H7N9)); test: as above
[10] = biological target: purified recombinant HA protein of H5N1 (A/Vietnam/1203/04) (Influenza A virus A/Vietnam/1203/04 (H5N1)); test: as above
[11] = biological target: purified recombinant HA protein of H1N1 (A/Texas/05/09) (Influenza A virus A/Texas/05/09 (H1N1)); test: as above
[12] = biological target: purified recombinant HA protein of H3N2 (A/Philippines/2/82) (Influenza A virus A/Philippines/2/82 (H3N2)); test: as above
[13] = biological target: purified recombinant HA protein of H7N7 (A/England/268/96) (Influenza A virus A/England/268/96 (H7N7)); test: as above
[14] = biological target: purified recombinant HA protein of H7N9 (A/Shanghai/1/2013) (Influenza A virus A/Shanghai/1/2013 (H7N9)); test: as above
[15] = biological target: purified recombinant HA protein of H1N1 (A/Ohio/07/09) (Influenza A virus A/Ohio/07/09 (H1N1)); test: as above
[16] = biological target: purified recombinant HA protein of H3N2 (A/Wisconsin/67/05) (Influenza A virus A/Wisconsin/67/05 (H3N2))
[17] = biological target: purified recombinant HA protein of H3N2 (A/Philippines/2/82) (Influenza A virus A/Philippines/2/82 (H3N2))
[18] = biological target: purified recombinant HA protein of H1N1 (A/Texas/05/09) (Influenza A virus A/Texas/05/09 (H1N1))
[19] = biological target: HA of A/Ohio/07/2009 (H1N1) virus (Influenza A virus A/Ohio/07/2009 (H1N1)); test: cell-based or functional assay
[20] = biological target: HA of A/Anhui/1/2013 (H7N9) virus (Influenza A virus A/Anhui/1/2013 (H7N9)); test: cell-based or functional assay
[21] = biological target: HA of A/Ann Arbor/6/60 ca (H2N2) virus (Influenza A virus A/Ann Arbor/6/60 ca (H2N2)); test: cell-based or functional assay
[22] = biological target: HA of A/PuertoRico/8/34 (H1N1) virus (Influenza A virus A/PuertoRico/8/34 (H1N1)) (UniProt P03452); test: cell-based or functional assay
[23] = biological target: HA of A/Ohio/83 (H1N1) virus (Influenza A virus A/Ohio/83 (H1N1)); test: cell-based or functional assay
[24] = biological target: HA of A/ck/HK/G9/97 (H9N2) virus (Influenza A virus A/ck/HK/G9/97 (H9N2)); test: cell-based or functional assay
[25] = biological target: HA of A/Sydney/5/97 (H3N2) virus (Influenza A virus A/Sydney/5/97 (H3N2)); test: cell-based or functional assay
[26] = biological target: HA of A/Perth/16/09 (H3N2) virus (Influenza A virus A/Perth/16/09 (H3N2)); test: cell-based or functional assay
[27] = biological target: HA of A/Solomon Islands/2006 (H1N1) virus (Influenza A virus A/Solomon Islands/3/2006 (H1N1)); test: cell-based or functional assay
[28] = biological target: HA of Anhui/1/05 (H5N1) virus (Influenza A virus A/Anhui/1/05 (H5N1)); test: cell-based or functional assay
[29] = biological target: HA of A/Shanghai/2/2013 (H7N9) virus (Influenza A virus A/Shanghai/2/2013 (H7N9)); test: cell-based or functional assay
[30] = biological target: HA of A/Texas/05/2009 (H1N1) virus (Influenza A virus A/Texas/05/2009 (H1N1)); test: cell-based or functional assay
[31] = biological target: HA of A/Beijing/32/92-R-H3N2 PR8 virus (Influenza A virus A/Beijing/32/92 (H3N2)); test: cell-based or functional assay

CT149 (antibody), sequence (VH): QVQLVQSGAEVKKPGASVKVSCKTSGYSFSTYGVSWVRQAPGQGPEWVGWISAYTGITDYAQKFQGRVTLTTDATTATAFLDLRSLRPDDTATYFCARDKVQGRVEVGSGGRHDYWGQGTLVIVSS
CT149 (antibody), sequence (VL): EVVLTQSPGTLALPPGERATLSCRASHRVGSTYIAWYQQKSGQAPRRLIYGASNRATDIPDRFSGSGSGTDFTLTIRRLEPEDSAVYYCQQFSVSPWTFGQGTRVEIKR

## CT149 (antibody)
[1]
  Kd: 2.94 nM
[2]
  Kd: 51.3 nM
[3]
  Kd: 0.149 nM
[4]
  Kd: 0.183 nM
[5]
  Kd: 4.41 nM
[6]
  Kd: 1.81 nM
[7]
  Kd: 1.77 nM and 1.85 nM
  koff: 0.000316 s⁻¹ and 0.000319 s⁻¹
  kon: 179000 M⁻¹ s⁻¹ and 173000 M⁻¹ s⁻¹
[8]
  Kd: 86 nM and 91.3 nM
  koff: 0.00723 s⁻¹ and 0.00745 s⁻¹
  kon: 84100 M⁻¹ s⁻¹ and 81600 M⁻¹ s⁻¹
[9]
  Kd: 0.165 nM and 0.201 nM
  koff: 0.00326 s⁻¹ and 0.00316 s⁻¹
  kon: 1.98e+07 M⁻¹ s⁻¹ and 1.57e+07 M⁻¹ s⁻¹
[10]
  Kd: 2.96 nM and 2.93 nM
  koff: 0.00391 s⁻¹ and 0.00386 s⁻¹
  kon: 1.32e+06 M⁻¹ s⁻¹
[11]
  Kd: 33.6 nM and 34.1 nM
  koff: 0.0558 s⁻¹ and 0.0562 s⁻¹
  kon: 1.66e+06 M⁻¹ s⁻¹ and 1.65e+06 M⁻¹ s⁻¹
[12]
  Kd: 0.0502 nM and 0.0411 nM
  koff: 1.47e-05 s⁻¹ and 1.17e-05 s⁻¹
  kon: 292000 M⁻¹ s⁻¹ and 285000 M⁻¹ s⁻¹
[13]
  Kd: 4.4 nM and 4.43 nM
  koff: 0.00176 s⁻¹ and 0.0018 s⁻¹
  kon: 401000 M⁻¹ s⁻¹ and 406000 M⁻¹ s⁻¹
[14]
  Kd: 0.142 nM and 0.155 nM
  koff: 0.0028 s⁻¹ and 0.00285 s⁻¹
  kon: 1.97e+07 M⁻¹ s⁻¹ and 1.83e+07 M⁻¹ s⁻¹
[15]
  Kd: 50.9 nM and 51.7 nM
  koff: 0.0379 s⁻¹ and 0.0387 s⁻¹
  kon: 746000 M⁻¹ s⁻¹ and 747000 M⁻¹ s⁻¹
[16]
  Kd: 88.6 nM
[17]
  Kd: 0.0456 nM
[18]
  Kd: 33.8 nM

## CT-P27
[19]
  EC50, microneutralization test: 0.29 µg/mL
[20]
  EC50, microneutralization test (Contract Lab A): 2.38 µg/mL
[21]
  EC50, microneutralization test: 12.7 µg/mL
[22]
  EC50, microneutralization test: 0.67 µg/mL
[23]
  EC50, microneutralization test: 0.73 µg/mL
[24]
  EC50, microneutralization test: 5.09 µg/mL
[25]
  EC50, microneutralization test: 6.53 µg/mL
[26]
  EC50, microneutralization test: 3.99 µg/mL
[27]
  EC50, microneutralization test: 0.27 µg/mL
[28]
  EC50, microneutralization test: 8.02 µg/mL
[29]
  EC50, microneutralization test (Contract Lab A): 3.55 µg/mL
  EC50, microneutralization test (Contract Lab B): 13.1 µg/mL
[30]
  EC50, microneutralization test: 2.05 µg/mL
[31]
  EC50, microneutralization test: 3.1 µg/mL
